Substrate in the data set: N[C@@H](C(=O)O)[C@@H](O)[C@H](O)[C@H](O)COP(=O)(O)O
Kind of data set: purified protein. Type of data set: biochemical, Salmonella enterica. Particulars: 0.1 M triethanolamine-HCl pH 8.0, 37 °C, 0.2 mM NADH.

B1: D-glucosaminate-6-phosphate ammonia-lyase (DGL), native (Salmonella enterica subsp. enterica serovar Typhimurium str. 14028S) (protein)
chain: MTPNIYQQLGLKKVINACGKMTILGVSSVAPEVMQATARAASAFVEIDALVEKTGELVSRYTGAEDSYITSCASAGIAIAVAAAITHGDRARVALMPDSSGMANEVVMLRGHNVDYGAPVTSAIRLGGGRIVEVGSSNLATRWQLESAINEKTAALLYVKSHHCVQKGMLSIDDFVQVAQANHLPLIVDAAAEEDLRGWVASGADMVIYSGAKAFNAPTSGFITGRKTWIAACKAQHQGIARAMKIGKENMVGLVYALENYHQGQTTVTAAQLQPVAEAISAIHGLYADIEQDEAGRAIWRIRVRVNASELGLNAQDVEAQLRGGEIAIYARKYQLHQGVFSLDPRTVAEGEMALIVARLREIAEHAAD
For orientation: Km means the concentration of substrate that gives half-maximal velocity. A word on the kcat: it is the maximal rate divided by the concentration of active sites. What is called kcat/Km is the turnover number divided by the Michaelis constant. As for B1, the Km worked out at 139 ± 26 µM, the turnover number (kcat) came out at 27.4 ± 1.4 s⁻¹ and the specificity constant (kcat/Km) was determined as 197000 ± 31000 M⁻¹ s⁻¹.
